Measured values as given in PMC11417369, “DNA sequence and chromatin differentiate sequence-specific transcription factor binding in the human malaria parasite Plasmodium falciparum”.

T1: AP2-G D1 (Plasmodium falciparum, UniProt Q8I5I9 2123-2245)
T1 sequence: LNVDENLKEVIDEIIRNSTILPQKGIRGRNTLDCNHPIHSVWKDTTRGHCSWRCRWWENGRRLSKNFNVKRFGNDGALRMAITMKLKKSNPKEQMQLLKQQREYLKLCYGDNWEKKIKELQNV

B1: XGTACX_negctrl_site375 (dsDNA)
DNA 1: AAATAAAATATATACATATATATATTATTTAGTAAT
DNA 2: ATTACTAAATAATATATATATGTATATATTTTATTT
B2: XGTACX_negctrl_site140 (dsDNA)
DNA 1: ATCTTATATCGTAGAGATTTTTTTTTTTTTTCATTT
DNA 2: AAATGAAAAAAAAAAAAAATCTCTACGATATAAGAT
B3: XGTACX_negctrl_site466 (dsDNA)
DNA 1: TTTATATTTATATAAATATAATATATATGAATTATA
DNA 2: TATAATTCATATATATTATATTTATATAAATATAAA
B4: XGTACX_negctrl_site582 (dsDNA)
DNA 1: TATTAAAAGAAAAAAAAAAAAAAATTAATACATATA
DNA 2: TATATGTATTAATTTTTTTTTTTTTTTCTTTTAATA
B5: XGTACX_negctrl_site18 (dsDNA)
DNA 1: TCATAAAAAGGAATCTTTAAGATATTTTATAAGCTC
DNA 2: GAGCTTATAAAATATCTTAAAGATTCCTTTTTATGA
B6: XGTACX_negctrl_site84 (dsDNA)
DNA 1: TTCAAAAAATAAAATAATAATATATATATAAATATA
DNA 2: TATATTTATATATATATTATTATTTTATTTTTTGAA
B7: XGTACX_negctrl_site402 (dsDNA)
DNA 1: AAAAGAATAATAATTTATGTATATTAATTAAAGAAT
DNA 2: ATTCTTTAATTAATATACATAAATTATTATTCTTTT
B8: XGTACX_negctrl_site205 (dsDNA)
DNA 1: AACAATATATTGATATTATTTTAAGTGATTATATAT
DNA 2: ATATATAATCACTTAAAATAATATCAATATATTGTT
B9: XGTACX_negctrl_site340 (dsDNA)
DNA 1: AAAAAATAAATAAACATAAATAAATAAATAAATATA
DNA 2: TATATTTATTTATTTATTTATGTTTATTTATTTTTT
B10: XGTACX_negctrl_site499 (dsDNA)
DNA 1: TTTTACTATGATATTTATATATCTATATATGTATAT
DNA 2: ATATACATATATAGATATATAAATATCATAGTAAAA
B11: XGTACX_negctrl_site452 (dsDNA)
DNA 1: TATCTCTACAAAATTTTATTCATTATTCATGTTATA
DNA 2: TATAACATGAATAATGAATAAAATTTTGTAGAGATA
B12: XGTACX_negctrl_site414 (dsDNA)
DNA 1: TATCTTTTTATTTTTTATTTTTTTTTTATAATTTAC
DNA 2: GTAAATTATAAAAAAAAAATAAAAAATAAAAAGATA
B13: XGTACX_negctrl_site185 (dsDNA)
DNA 1: AAACAACAAAAATGATATATATAAAATTTATAATAT
DNA 2: ATATTATAAATTTTATATATATCATTTTTGTTGTTT
B14: XGTACX_negctrl_site404 (dsDNA)
DNA 1: ATAAAATAAATATTTTGTTATTTATTTAATCTAATA
DNA 2: TATTAGATTAAATAAATAACAAAATATTTATTTTAT
B15: XGTACX_negctrl_site428 (dsDNA)
DNA 1: AACAAGAAAAAAAAAAAAAAAAAAAAAAAATATTTT
DNA 2: AAAATATTTTTTTTTTTTTTTTTTTTTTTTCTTGTT
B16: XGTACX_negctrl_site44 (dsDNA)
DNA 1: AAATTAAAATAATAATTCTACAAATTAATTTATCAT
DNA 2: ATGATAAATTAATTTGTAGAATTATTATTTTAATTT
B17: XGTACX_negctrl_site416 (dsDNA)
DNA 1: TATTTCAAAATAAAATAAAATATATATATATGTATA
DNA 2: TATACATATATATATATTTTATTTTATTTTGAAATA
B18: XGTACX_negctrl_site280 (dsDNA)
DNA 1: AATTAATATATAAATAATAAAAAAAAATATATAAAC
DNA 2: GTTTATATATTTTTTTTTATTATTTATATATTAATT
B19: XGTACX_negctrl_site207 (dsDNA)
DNA 1: TTTTTATTTAATATTTTAAAAAAAAATCATTTTTAA
DNA 2: TTAAAAATGATTTTTTTTTAAAATATTAAATAAAAA
B20: XGTACX_negctrl_site390 (dsDNA)
DNA 1: TTATGAATATTGATGTATAAAAAAATATATATGTTA
DNA 2: TAACATATATATTTTTTTATACATCAATATTCATAA
B21: XGTACX_negctrl_site68 (dsDNA)
DNA 1: AATATAGAAATAAATATATCACATTTGTGTTTAAAC
DNA 2: GTTTAAACACAAATGTGATATATTTATTTCTATATT
B22: XGTACX_negctrl_site100 (dsDNA)
DNA 1: TTTATATTATAATATAATAATGATCTTAATTTTTTT
DNA 2: AAAAAAATTAAGATCATTATTATATTATAATATAAA
B23: XGTACX_negctrl_site431 (dsDNA)
DNA 1: TTATTAAAATATACATTTGAAAGTAATCTTATTTAA
DNA 2: TTAAATAAGATTACTTTCAAATGTATATTTTAATAA
B24: XGTACX_negctrl_site318 (dsDNA)
DNA 1: GAAAAAAGGAAATAAAGAAAAAAAAAAATGAAATAT
DNA 2: ATATTTCATTTTTTTTTTTCTTTATTTCCTTTTTTC
B25: XGTACX_negctrl_site367 (dsDNA)
DNA 1: ATAAAATGATGTATCTGTGTATGTTTATTTTGTTTT
DNA 2: AAAACAAAATAAACATACACAGATACATCATTTTAT
B26: XGTACX_negctrl_site42 (dsDNA)
DNA 1: AATGAATAACAATACTATATGATTTTTAATACATTA
DNA 2: TAATGTATTAAAAATCATATAGTATTGTTATTCATT
B27: XGTACX_negctrl_site296 (dsDNA)
DNA 1: AATGAATTTAATTCTACTATTTTTTTTTTAAATATT
DNA 2: AATATTTAAAAAAAAAATAGTAGAATTAAATTCATT
B28: XGTACX_negctrl_site51 (dsDNA)
DNA 1: AAAAATAAAAAATATAAAAATATAAAAATATAAAAA
DNA 2: TTTTTATATTTTTATATTTTTATATTTTTTATTTTT
B29: XGTACX_negctrl_site511 (dsDNA)
DNA 1: ATGAAATCTTTAGAATATAGATGATGTTATTTAATT
DNA 2: AATTAAATAACATCATCTATATTCTAAAGATTTCAT
B30: XGTACX_negctrl_site550 (dsDNA)
DNA 1: ACGTAATTAATTCATCAGATATAATTAATAATAATA
DNA 2: TATTATTATTAATTATATCTGATGAATTAATTACGT
B31: XGTACX_negctrl_site234 (dsDNA)
DNA 1: ATTATAACTAAATAAATGATATATAATATTTTATTT
DNA 2: AAATAAAATATTATATATCATTTATTTAGTTATAAT
B32: XGTACX_negctrl_site425 (dsDNA)
DNA 1: ATTTGTATATAATATATATAATTTTTTTTTTTTGTT
DNA 2: AACAAAAAAAAAAAATTATATATATTATATACAAAT
B33: XGTACX_negctrl_site434 (dsDNA)
DNA 1: ATGCAACTATATATATATATTATATGTATGAATAAT
DNA 2: ATTATTCATACATATAATATATATATATAGTTGCAT
B34: XGTACX_negctrl_site114 (dsDNA)
DNA 1: TATTATTGTCATTTTTTTTTTTTTTTTTTCTATTTC
DNA 2: GAAATAGAAAAAAAAAAAAAAAAAATGACAATAATA
B35: XGTACX_negctrl_site478 (dsDNA)
DNA 1: TACATATATATAATATATATATCATCATATTTTCTT
DNA 2: AAGAAAATATGATGATATATATATTATATATATGTA
B36: XGTACX_negctrl_site127 (dsDNA)
DNA 1: TTTTTAAAAAAATTGATTCTTTTTCTTTTTTTTCTT
DNA 2: AAGAAAAAAAAGAAAAAGAATCAATTTTTTTAAAAA
B37: XGTACX_negctrl_site55 (dsDNA)
DNA 1: ATGGAATATTTCATGATTTTTTTAATTTTTTTATTG
DNA 2: CAATAAAAAAATTAAAAAAATCATGAAATATTCCAT
B38: XGTACX_negctrl_site8 (dsDNA)
DNA 1: TAAAACATGTTTTTATATATTATTATTATATTTATA
DNA 2: TATAAATATAATAATAATATATAAAAACATGTTTTA
B39: XGTACX_negctrl_site407 (dsDNA)
DNA 1: AATATATATATAAATAATATACCTATATATTTTTTG
DNA 2: CAAAAAATATATAGGTATATTATTTATATATATATT
B40: XGTACX_negctrl_site79 (dsDNA)
DNA 1: TACATGTATGTAATATGTTTTATTTTTTTCATCTCT
DNA 2: AGAGATGAAAAAAATAAAACATATTACATACATGTA
B41: XGTACX_negctrl_site397 (dsDNA)
DNA 1: TTTTTTTTCAATCTCTATATATTAAGGTTTATATTT
DNA 2: AAATATAAACCTTAATATATAGAGATTGAAAAAAAA
B42: XGTACX_negctrl_site342 (dsDNA)
DNA 1: ATGAACGGAAAAATATATATAAATATATATATCATG
DNA 2: CATGATATATATATTTATATATATTTTTCCGTTCAT
B43: XGTACX_negctrl_site606 (dsDNA)
DNA 1: TTTTTATATATATGTATAAATATTTTTTCTATTTAT
DNA 2: ATAAATAGAAAAAATATTTATACATATATATAAAAA

The binders below were run against T1, AP2-G D1 (assay: gcPBM; about 25 ug protein; PBS, 1% milk, 0.2 mg/ml BSA, salmon testes DNA, 0.03% Triton X-100). Conditions: tags: N-terminal GST (pGEX-4T-1), kept; label: surface-attached array probe.
In the case of B1, the binding signal is reported as 9.35 ln median PBM intensity, better of two orientations.
With B2 the binding signal was 9.22 ln median PBM intensity, better of two orientations.
B3 was tested, and the binding signal was 9.51 ln median PBM intensity, better of two orientations.
With B4 the binding signal was 9.38 ln median PBM intensity, better of two orientations.
B5 was tested, and the binding signal was 9.17 ln median PBM intensity, better of two orientations.
In the case of B6, the binding signal is reported as 9.17 ln median PBM intensity, better of two orientations.
With B7 the binding signal was 9.4 ln median PBM intensity, better of two orientations.
With B8 the binding signal was 9.41 ln median PBM intensity, better of two orientations.
In the case of B9, the binding signal is reported as 9.52 ln median PBM intensity, better of two orientations.
With B10 the binding signal was 9.32 ln median PBM intensity, better of two orientations.
For B11, the binding signal was 9.53 ln median PBM intensity, better of two orientations.
For B12, the binding signal was 9.42 ln median PBM intensity, better of two orientations.
For B13, the binding signal was 9.32 ln median PBM intensity, better of two orientations.
In the case of B14, the binding signal is reported as 9.22 ln median PBM intensity, better of two orientations.
In the case of B15, the binding signal is reported as 9.36 ln median PBM intensity, better of two orientations.
In the case of B16, the binding signal is reported as 9.42 ln median PBM intensity, better of two orientations.
For B17, the binding signal was 9.38 ln median PBM intensity, better of two orientations.
For B18, the binding signal was 9.42 ln median PBM intensity, better of two orientations.
For B19, the binding signal was 9.53 ln median PBM intensity, better of two orientations.
With B20 the binding signal was 9.46 ln median PBM intensity, better of two orientations.
B21 was tested, and the binding signal was 9.45 ln median PBM intensity, better of two orientations.
B22 was tested, and the binding signal was 9.34 ln median PBM intensity, better of two orientations.
B23 was tested, and the binding signal was 9.42 ln median PBM intensity, better of two orientations.
B24 was tested, and the binding signal was 9.53 ln median PBM intensity, better of two orientations.
In the case of B25, the binding signal is reported as 9.53 ln median PBM intensity, better of two orientations.
For B26, the binding signal was 9.52 ln median PBM intensity, better of two orientations.
In the case of B27, the binding signal is reported as 9.5 ln median PBM intensity, better of two orientations.
With B28 the binding signal was 9.09 ln median PBM intensity, better of two orientations.
B29 was tested, and the binding signal was 9.15 ln median PBM intensity, better of two orientations.
In the case of B30, the binding signal is reported as 9.41 ln median PBM intensity, better of two orientations.
With B31 the binding signal was 9.29 ln median PBM intensity, better of two orientations.
B32 was tested, and the binding signal was 9.44 ln median PBM intensity, better of two orientations.
B33 was tested, and the binding signal was 9.5 ln median PBM intensity, better of two orientations.
For B34, the binding signal was 9.51 ln median PBM intensity, better of two orientations.
In the case of B35, the binding signal is reported as 9.22 ln median PBM intensity, better of two orientations.
B36 was tested, and the binding signal was 9.16 ln median PBM intensity, better of two orientations.
In the case of B37, the binding signal is reported as 9.52 ln median PBM intensity, better of two orientations.
B38 was tested, and the binding signal was 9.11 ln median PBM intensity, better of two orientations.
For B39, the binding signal was 9.52 ln median PBM intensity, better of two orientations.
B40 was tested, and the binding signal was 9.12 ln median PBM intensity, better of two orientations.
In the case of B41, the binding signal is reported as 9.41 ln median PBM intensity, better of two orientations.
In the case of B42, the binding signal is reported as 9.47 ln median PBM intensity, better of two orientations.
With B43 the binding signal was 9.44 ln median PBM intensity, better of two orientations.
